This note sets out measurements from paper PMC3322551.

By Kd is commonly meant the free concentration of one partner at which half of the binding sites on the other are occupied at equilibrium, for simple one-to-one binding. A lower Kd goes with higher affinity. For orientation: kon means a measure of how fast the partners come together. High values mean fast association, low ones slow association.

The target in this assay is porcine plasminogen (porcine). As to the kind of experiment: SPR. (SPR reads the build-up and loss of mass on a sensor chip optically.)
In turn, “F3_(P146/232), recombinant C-terminal fragment of P146 (Mhp684) of Mycoplasma hyopneumoniae strain 232 (domain or fragment)” showed an equilibrium dissociation constant (Kd) of 46 nM and a kon of 170000 M⁻¹ s⁻¹.
“F3_(P146/J), recombinant C-terminal fragment of P146 (MHJ_0663) of Mycoplasma hyopneumoniae strain J (domain or fragment)” showed a Kd of 39 nM and a kon of 46000 M⁻¹ s⁻¹.
Substance “F3_(P146/JΔK), strain J F3_(P146) without its C-terminal lysine (domain or fragment)” gave a dissociation constant (Kd) of 210 nM and a kon of 13000 M⁻¹ s⁻¹.
Substance “F3_(P146/232ΔR), strain 232 F3_(P146) without its C-terminal arginine (domain or fragment)” returned a Kd of 220 nM and a kon of 13000 M⁻¹ s⁻¹.
